{
  "source": "patent US20220409663A1",
  "target": "transforming growth factor-beta receptor 2 (TGFBR2) (human) (UniProt P37173)",
  "sequence (P37173 23-567)": "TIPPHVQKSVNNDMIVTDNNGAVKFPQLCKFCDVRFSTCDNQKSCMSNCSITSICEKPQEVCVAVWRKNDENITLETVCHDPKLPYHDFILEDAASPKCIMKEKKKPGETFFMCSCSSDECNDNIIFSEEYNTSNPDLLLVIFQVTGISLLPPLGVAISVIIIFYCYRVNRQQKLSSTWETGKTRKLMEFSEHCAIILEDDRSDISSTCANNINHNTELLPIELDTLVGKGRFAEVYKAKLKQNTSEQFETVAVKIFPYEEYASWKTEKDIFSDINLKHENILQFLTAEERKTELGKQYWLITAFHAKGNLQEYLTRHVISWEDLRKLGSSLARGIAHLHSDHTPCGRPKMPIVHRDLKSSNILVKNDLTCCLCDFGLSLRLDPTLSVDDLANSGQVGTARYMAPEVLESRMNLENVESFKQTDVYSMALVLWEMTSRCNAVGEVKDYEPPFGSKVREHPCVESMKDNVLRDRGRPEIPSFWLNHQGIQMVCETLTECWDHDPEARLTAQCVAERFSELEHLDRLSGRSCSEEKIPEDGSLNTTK",
  "assay": "cell-based or functional assay",
  "data": [
    {"substance": "transforming growth factor-β (TGFβ) (ligand)", "values": [
      {"measurement": "fold change in cytokine concentration from TGF-β:vehicle treated cells (pro-inflammatory cytokine secretion, 3 days, TGF-β 10 ng/ml) (fold change (ratio))", "result": "< 1"}
    ]}
  ]
}
